B1: chimera tPRMT8C (β15 of tPRMT8 replaced with that of Hmt1) (domain or fragment, human | yeast)
chain: MSKLLNPEEMTSRDYYFDSYAHFGIHEEMLKDEVRTLTYRNSMYHNKHVFKDKVVLDVGSGTGILSMFAAKAGAKKVFGIECSSISDYSEKIIKANHLDNIITIFKGKVEEVELPVEKVDIIISEWMGYCLFYESMLNTVIFARDKWLKPGGLMFPDRAALYVVAIEDRQYKDFKIHWWENVYGFDMTCIRDVAMKEPLVDIVDPKQVVTNACLIKEVDIYTVKTEELSFTSAFCLQIQRNDYVHALVTYFNIEFTKCHKKMGFSTAPDAPYTHWKQTVFYLEDYLTVRRGEEIYGTISMKPNAKNVRDLDFTVDLDFKIDGNSRSRKNEGSYLMH
B2: EGFP-tagged tPRMT8 (domain or fragment, human, UniProt Q9NR22 61-394, looked up)
chain: MSKLLNPEEMTSRDYYFDSYAHFGIHEEMLKDEVRTLTYRNSMYHNKHVFKDKVVLDVGSGTGILSMFAAKAGAKKVFGIECSSISDYSEKIIKANHLDNIITIFKGKVEEVELPVEKVDIIISEWMGYCLFYESMLNTVIFARDKWLKPGGLMFPDRAALYVVAIEDRQYKDFKIHWWENVYGFDMTCIRDVAMKEPLVDIVDPKQVVTNACLIKEVDIYTVKTEELSFTSAFCLQIQRNDYVHALVTYFNIEFTKCHKKMGFSTAPDAPYTHWKQTVFYLEDYLTVRRGEEIYGTISMKPNAKNVRDLDFTVDLDFKGQLCETSVSNDYKMR

Legend:
AUC = target: the molecule itself; experiment: AUC
native gel or EMSA = target: the molecule itself; experiment: native gel or EMSA

Row | Protein | stoichiometry N (AUC) | stoichiometry N (native gel or EMSA)
1 | B1 | 4 | 
2 | B2 |  | 4

From paper PMC7570257 (Biochemistry, 2015)
